According to publication PMC2408619, “Selective Ligand Recognition by a Diversity-Generating Retroelement Variable Protein” (PLoS Biology, 2008):

T1: His-tagged ectodomain of B. bronchiseptica pertactin (Prn-E; residues 38-640) (B. bronchiseptica, UniProt Q03035 38-640)
T1 construct: Pertactin of B. bronchiseptica, 60 kDa ectodomain, residues 38-640 of the 93 kDa precursor; the loop deletion mutants carry an N-terminal His tag from pET28b; also called wild-type Prn-E; His-tagged Prn-E
T1 sequence: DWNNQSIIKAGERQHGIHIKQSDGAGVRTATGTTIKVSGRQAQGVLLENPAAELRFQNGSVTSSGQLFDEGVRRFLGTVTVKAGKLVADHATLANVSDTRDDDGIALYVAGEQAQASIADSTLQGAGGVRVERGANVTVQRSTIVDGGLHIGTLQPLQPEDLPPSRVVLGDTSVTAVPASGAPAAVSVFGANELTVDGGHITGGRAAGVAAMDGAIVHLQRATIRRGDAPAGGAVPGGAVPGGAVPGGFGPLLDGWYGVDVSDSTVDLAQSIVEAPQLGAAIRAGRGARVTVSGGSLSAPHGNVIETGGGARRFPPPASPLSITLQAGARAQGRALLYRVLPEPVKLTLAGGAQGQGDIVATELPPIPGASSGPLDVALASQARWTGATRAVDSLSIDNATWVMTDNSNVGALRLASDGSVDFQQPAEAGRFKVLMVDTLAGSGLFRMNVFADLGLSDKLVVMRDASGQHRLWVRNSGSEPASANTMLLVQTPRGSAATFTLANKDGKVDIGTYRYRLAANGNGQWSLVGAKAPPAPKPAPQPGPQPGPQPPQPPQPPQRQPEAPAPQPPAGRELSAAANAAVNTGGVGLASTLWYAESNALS

T2: Biotinylated Prn-E (pertactin residues 38-640 with N-terminal biotinylation sequence) (B. bronchiseptica, UniProt Q03035 38-640, biotin (in vivo biotinylation of the N-terminal biotinylation sequence))
T2 construct: Pertactin of B. bronchiseptica, ectodomain residues 38-640; also called immobilized pertactin
T2 sequence: T1 sequence

B1: Bordetella bacteriophage major tropism determinant variant Mtd-P1 (natural protein)
chain: MSTAVQFRGGTTAQHATFTGAAREITVDTDKNTVVVHDGATAGGFPLARHDLVKTAFIKADKSAVAFTRTGNATASIKAGTIVEVNGKLVQFTADTAITMPALTAGTDYAIYVCDDGTVRADSNFSAPTGYTSTTARKVGGFHYAPGSNAAAQAGGNTTAQINEYSLWDIKFRPAALDPRGMTLVAGAFWADIYLLGVNHLTDGTSKYNVTIADGSASPKKSTKFGGDGSAAYSDGAWYNFAEVMTHHGKRLPNYNEFQALAFGTTEATSSGGTDVPTTGVNGTGATSAWNIFTSKWGVVQASGCLWTWGNEFGGVNGASEYTANTGGRGSVYAQPAAALFGGAWNGTSLSGSRAALWYSGPSFSFAFFGARGVCDHLILE
notes: Major tropism determinant (Mtd), variant P1, expressed by Bordetella bacteriophage BPP-1; Mtd has 381 residues in total; trimer of 120 kDa
B2: BPP-1 phage displaying Mtd-P1 (other)
chain: B1 chain
notes: Major tropism determinant (Mtd), variant P1, at the ends of the tail fibers of whole BPP-1 phage; 381 residues; Whole phage particle; The other phage proteins are not written; also called BPP-1(Δbrt); source: phage harvested from B. bronchiseptica RB50 cultures, concentrated by centrifugation and ultrafiltration

Tests used:
[1] = biological target: T1, His-tagged ectodomain of B. …; experiment: crystal structure; Mtd-P1·Prn-E complex formed with ~1.6-fold molar excess of Mtd-P1 trimers over His-tagged Prn-E, isolated by Ni2+-chelation and Superdex 200; crystals at 25 °C in 2 M NaCl, 100 mM Tris pH 8.5, 200 mM Li2SO4; 3.16 Å; conditions: both partners purified
[2] = biological target: T2, Biotinylated Prn-E (pertactin residues …); experiment: SPR; Biacore 3000, 25 °C; ~100 RU biotinylated Prn-E on a streptavidin chip; Mtd proteins injected in 150 mM NaCl, 50 mM Tris pH 8.0, 0.005% Tween 20 at 30 μl/min; single-site model, global fit, six concentrations, duplicate; conditions: both partners purified
[3] = biological target: T2, Biotinylated Prn-E (pertactin residues …); experiment: SPR; Biacore 3000, 25 °C; ~100 RU biotinylated Prn-E on a streptavidin chip; whole phage injected (BPP-1 ~1.2-3.7 × 10^-15 M, BPP-6 ~1-2 × 10^-16 M, BIP-1 8.3 × 10^-16 to 8.3 × 10^-15 M, BMP-1 e.g. 3.68 × 10^-15 M); multivalent; single-site model, global fit; conditions: one partner purified

Binder | stoichiometry N [1] | Kd [2] | kon [2] | Kd [3]
B1 | 3 Mtd-P1 protomers per Prn-E | 3.47 ± 0.13 µM | ~10000 M⁻¹ s⁻¹ | 
B2 |  |  |  | 6.89 ± 1.77 pM
